Test results reported in article PMC13066097 (Nature Communications, 2026).

Columns and labels:
[1] = molecular target: T1, recombinant PcrV protein (rePcrV) coated on ELISA plates (Pseudomonas aeruginosa, strain not told …); assay: ELISA
T1 chain: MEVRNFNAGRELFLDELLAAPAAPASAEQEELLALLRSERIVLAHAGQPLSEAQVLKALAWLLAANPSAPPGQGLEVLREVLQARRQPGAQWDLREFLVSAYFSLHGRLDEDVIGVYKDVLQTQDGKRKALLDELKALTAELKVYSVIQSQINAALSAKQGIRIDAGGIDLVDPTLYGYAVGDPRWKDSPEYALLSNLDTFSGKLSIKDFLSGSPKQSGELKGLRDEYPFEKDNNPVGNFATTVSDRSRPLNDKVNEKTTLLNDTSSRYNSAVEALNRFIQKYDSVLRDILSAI

[2] = molecular target: T2, 6xHis-tagged PcrV of P. aeruginosa clinical isolate KP2401 expressed in E. coli (Pseudomonas aeruginosa KP2401 (ST5295), strain); assay: immunoblot
T2 chain: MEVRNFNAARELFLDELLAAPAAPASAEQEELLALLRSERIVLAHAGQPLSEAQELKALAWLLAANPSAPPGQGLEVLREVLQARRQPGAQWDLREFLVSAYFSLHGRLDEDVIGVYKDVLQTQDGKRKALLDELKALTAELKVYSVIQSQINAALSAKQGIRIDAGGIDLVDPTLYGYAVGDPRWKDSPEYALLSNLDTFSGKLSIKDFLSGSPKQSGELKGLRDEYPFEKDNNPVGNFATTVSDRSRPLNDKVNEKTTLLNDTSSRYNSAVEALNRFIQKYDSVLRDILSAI

[3] = molecular target: T3, 6xHis-tagged PcrV of P. aeruginosa clinical isolate KN5 expressed in E. coli (Pseudomonas aeruginosa KN5 (ST357), strain); assay: immunoblot
T3 chain: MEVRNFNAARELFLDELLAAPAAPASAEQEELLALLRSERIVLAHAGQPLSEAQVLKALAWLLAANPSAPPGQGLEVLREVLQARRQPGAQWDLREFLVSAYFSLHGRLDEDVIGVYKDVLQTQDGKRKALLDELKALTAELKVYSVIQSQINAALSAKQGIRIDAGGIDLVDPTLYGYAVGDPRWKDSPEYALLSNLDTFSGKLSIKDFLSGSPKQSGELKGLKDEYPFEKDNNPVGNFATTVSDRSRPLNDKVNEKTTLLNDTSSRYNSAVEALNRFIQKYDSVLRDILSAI

[4] = molecular target: 6xHis-tagged PcrV of P. aeruginosa clinical isolate KN37 expressed in E. coli (Pseudomonas aeruginosa KN37 (ST244), strain); assay: immunoblot
[5] = molecular target: T4, 6xHis-tagged PcrV of P. aeruginosa clinical isolate KN41 expressed in E. coli (Pseudomonas aeruginosa KN41 (ST235), strain); assay: immunoblot
T4 chain: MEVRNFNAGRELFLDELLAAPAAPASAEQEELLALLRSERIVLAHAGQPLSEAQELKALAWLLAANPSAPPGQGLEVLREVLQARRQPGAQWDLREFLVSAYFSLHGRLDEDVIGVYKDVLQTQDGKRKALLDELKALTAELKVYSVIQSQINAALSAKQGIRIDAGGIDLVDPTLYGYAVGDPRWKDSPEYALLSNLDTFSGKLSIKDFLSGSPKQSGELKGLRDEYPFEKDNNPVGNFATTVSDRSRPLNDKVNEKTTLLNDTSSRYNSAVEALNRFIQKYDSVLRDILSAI

[6] = molecular target: 6xHis-tagged PcrV of P. aeruginosa clinical isolate KN15 expressed in E. coli (Pseudomonas aeruginosa KN15 (ST512), strain); assay: immunoblot
[7] = molecular target: T5, 6xHis-tagged PcrV of P. aeruginosa clinical isolate KN17 expressed in E. coli (Pseudomonas aeruginosa KN17 (ST357), strain); assay: immunoblot
T5 chain: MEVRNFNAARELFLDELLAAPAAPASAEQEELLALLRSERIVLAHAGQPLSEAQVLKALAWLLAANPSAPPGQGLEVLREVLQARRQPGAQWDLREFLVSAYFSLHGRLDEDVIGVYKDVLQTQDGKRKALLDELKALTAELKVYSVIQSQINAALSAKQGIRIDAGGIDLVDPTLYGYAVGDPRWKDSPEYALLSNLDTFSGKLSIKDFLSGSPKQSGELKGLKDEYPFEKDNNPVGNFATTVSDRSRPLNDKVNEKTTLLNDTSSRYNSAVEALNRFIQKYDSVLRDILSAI

[8] = molecular target: T6, 6xHis-tagged PcrV of P. aeruginosa clinical isolate KN28 expressed in E. coli (Pseudomonas aeruginosa KN28 (ST357), strain); assay: immunoblot
T6 chain: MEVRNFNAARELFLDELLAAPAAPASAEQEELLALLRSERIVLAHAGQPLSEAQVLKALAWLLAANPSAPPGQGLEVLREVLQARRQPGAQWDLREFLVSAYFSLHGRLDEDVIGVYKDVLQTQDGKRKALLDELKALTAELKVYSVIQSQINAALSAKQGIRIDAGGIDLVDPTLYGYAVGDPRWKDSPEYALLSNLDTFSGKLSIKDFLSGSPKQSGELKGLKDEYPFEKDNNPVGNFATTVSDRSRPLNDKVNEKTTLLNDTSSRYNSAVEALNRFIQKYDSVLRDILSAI

[9] = molecular target: T7, 6xHis-tagged PcrV of P. aeruginosa clinical isolate KN27 expressed in E. coli (Pseudomonas aeruginosa KN27 (ST235), strain); assay: immunoblot
T7 chain: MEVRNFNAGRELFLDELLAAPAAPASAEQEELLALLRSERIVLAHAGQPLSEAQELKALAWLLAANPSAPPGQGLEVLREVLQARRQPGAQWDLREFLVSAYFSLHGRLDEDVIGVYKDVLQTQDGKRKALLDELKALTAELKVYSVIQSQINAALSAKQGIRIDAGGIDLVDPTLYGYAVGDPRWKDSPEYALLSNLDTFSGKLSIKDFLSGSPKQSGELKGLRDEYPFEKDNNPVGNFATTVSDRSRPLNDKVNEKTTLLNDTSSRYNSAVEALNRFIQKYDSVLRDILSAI

[10] = molecular target: 6xHis-tagged PcrV of P. aeruginosa clinical isolate KN33 expressed in E. coli (Pseudomonas aeruginosa KN33 (ST508), strain); assay: immunoblot
[11] = molecular target: 6xHis-tagged PcrV of P. aeruginosa clinical isolate KN34 expressed in E. coli (Pseudomonas aeruginosa KN34 (ST186), strain); assay: immunoblot
[12] = molecular target: PcrV of P. aeruginosa clinical isolate KN34, from bacterial culture (Pseudomonas aeruginosa KN34 (ST186), UniProt G3XD49, strain); assay: immunoblot
[13] = molecular target: PcrV of P. aeruginosa strain PAO1, from bacterial culture (Pseudomonas aeruginosa PAO1); assay: immunoblot
[14] = molecular target: T8, PcrV of P. aeruginosa clinical isolate KP2401, from bacterial culture (Pseudomonas aeruginosa KP2401 (ST5295), strain); assay: immunoblot
T8 chain: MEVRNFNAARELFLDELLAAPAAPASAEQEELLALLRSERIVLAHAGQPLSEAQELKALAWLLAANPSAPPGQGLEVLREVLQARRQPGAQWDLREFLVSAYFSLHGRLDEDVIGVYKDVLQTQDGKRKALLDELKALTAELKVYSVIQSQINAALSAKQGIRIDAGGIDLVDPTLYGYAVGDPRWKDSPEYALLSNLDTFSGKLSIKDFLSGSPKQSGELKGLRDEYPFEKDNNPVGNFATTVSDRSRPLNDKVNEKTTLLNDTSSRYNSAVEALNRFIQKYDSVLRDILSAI

[15] = molecular target: T9, PcrV of P. aeruginosa clinical isolate KN28, from bacterial culture (Pseudomonas aeruginosa KN28 (ST357); …, strain); assay: immunoblot
T9 chain: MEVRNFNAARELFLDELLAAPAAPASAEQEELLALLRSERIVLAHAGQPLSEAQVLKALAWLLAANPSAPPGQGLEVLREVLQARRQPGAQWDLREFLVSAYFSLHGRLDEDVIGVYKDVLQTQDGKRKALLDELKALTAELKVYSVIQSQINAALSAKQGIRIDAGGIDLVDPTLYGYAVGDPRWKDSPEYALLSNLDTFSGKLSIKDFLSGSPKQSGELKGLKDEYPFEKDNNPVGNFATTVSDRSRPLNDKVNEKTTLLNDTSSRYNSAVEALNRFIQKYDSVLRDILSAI

[16] = molecular target: T10, PcrV of P. aeruginosa clinical isolate KN27, from bacterial culture (Pseudomonas aeruginosa KN27 (ST235), strain); assay: immunoblot
T10 chain: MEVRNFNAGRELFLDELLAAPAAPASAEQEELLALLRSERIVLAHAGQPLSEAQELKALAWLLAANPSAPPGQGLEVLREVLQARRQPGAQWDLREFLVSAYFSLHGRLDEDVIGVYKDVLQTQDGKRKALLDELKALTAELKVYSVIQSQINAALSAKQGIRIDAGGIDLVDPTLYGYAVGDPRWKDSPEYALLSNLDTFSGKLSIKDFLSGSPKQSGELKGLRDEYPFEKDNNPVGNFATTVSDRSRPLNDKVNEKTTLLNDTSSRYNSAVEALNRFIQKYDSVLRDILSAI

[17] = molecular target: T11, PcrV of P. aeruginosa clinical isolate KN5, from bacterial culture (Pseudomonas aeruginosa KN5 (ST357), strain); assay: immunoblot
T11 chain: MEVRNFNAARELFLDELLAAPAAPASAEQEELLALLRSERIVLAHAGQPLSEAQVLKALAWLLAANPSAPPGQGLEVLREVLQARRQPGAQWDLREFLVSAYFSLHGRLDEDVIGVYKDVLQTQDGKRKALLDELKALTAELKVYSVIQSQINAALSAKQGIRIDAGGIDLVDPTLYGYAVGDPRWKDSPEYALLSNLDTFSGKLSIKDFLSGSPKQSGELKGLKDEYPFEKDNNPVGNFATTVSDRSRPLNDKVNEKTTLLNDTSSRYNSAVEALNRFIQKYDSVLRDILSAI

[18] = molecular target: T12, PcrV of P. aeruginosa clinical isolate KN41, from bacterial culture (Pseudomonas aeruginosa KN41 (ST235), strain); assay: immunoblot
T12 chain: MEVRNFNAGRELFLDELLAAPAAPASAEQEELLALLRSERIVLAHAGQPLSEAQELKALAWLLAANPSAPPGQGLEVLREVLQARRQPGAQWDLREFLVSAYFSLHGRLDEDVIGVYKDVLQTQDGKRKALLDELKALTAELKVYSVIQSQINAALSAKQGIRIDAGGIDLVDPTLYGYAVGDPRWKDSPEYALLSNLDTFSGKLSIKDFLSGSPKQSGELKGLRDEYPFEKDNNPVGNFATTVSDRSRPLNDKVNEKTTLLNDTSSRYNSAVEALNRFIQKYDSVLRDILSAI

[19] = molecular target: PcrV of P. aeruginosa clinical isolate KN33, from bacterial culture (Pseudomonas aeruginosa KN33 (ST508), UniProt G3XD49, strain); assay: immunoblot
[20] = molecular target: PcrV of P. aeruginosa clinical isolate KN15, from bacterial culture (Pseudomonas aeruginosa KN15 (ST512), strain); assay: immunoblot
[21] = molecular target: T13, PcrV of P. aeruginosa clinical isolate KN17, from bacterial culture (Pseudomonas aeruginosa clinical isolate …, strain); assay: immunoblot
T13 chain: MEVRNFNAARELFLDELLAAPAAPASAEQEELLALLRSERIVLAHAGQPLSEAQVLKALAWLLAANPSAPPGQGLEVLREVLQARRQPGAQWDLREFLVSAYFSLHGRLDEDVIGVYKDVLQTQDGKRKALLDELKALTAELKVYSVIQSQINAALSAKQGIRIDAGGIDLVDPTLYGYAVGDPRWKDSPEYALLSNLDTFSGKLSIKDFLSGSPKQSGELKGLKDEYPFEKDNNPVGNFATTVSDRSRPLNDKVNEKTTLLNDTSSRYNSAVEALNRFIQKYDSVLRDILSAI

[22] = molecular target: PcrV of P. aeruginosa clinical isolate KN37, from bacterial culture (Pseudomonas aeruginosa KN37 (ST244), UniProt G3XD49, strain); assay: immunoblot

B1: anti-PcrV scFv antibody scFv-m166 (recombinant protein) (scFv, V domains shown)
VH: QVQLKQSGPGLVQPSQSLSITCTVSGFSLTSYGVHWVRQSPGKGLEWLGVIWSGGDTDYNAAFISRLSISKDNSKSQLFFKMNSLRATDTAIYYCARNRGDIYYDFTYAMDYWGQGTSVTVSS
VL: DIQMTQSPASLSASVGETVTITCRASGNIQNYLAWYQQTQGKSPQLLVYSAKTLADGVPSRFSGSGSGTQYSLKINSLQPEDFGSYYCQHFWSTPYTFGGGTKLEIK
[1]
  EC50: 35 nM

B2: anti-PcrV scFv conjugated with the mouse IgG1 hinge, CH2 and CH3 domains, scFv-m166-mFc (recombinant protein) (Fc fusion)
VH: QVQLKQSGPGLVQPSQSLSITCTVSGFSLTSYGVHWVRQSPGKGLEWLGVIWSGGDTDYNAAFISRLSISKDNSKSQLFFKMNSLRATDTAIYYCARNRGDIYYDFTYAMDYWGQGTSVTVSS
VL: DIQMTQSPASLSASVGETVTITCRASGNIQNYLAWYQQTQGKSPQLLVYSAKTLADGVPSRFSGSGSGTQYSLKINSLQPEDFGSYYCQHFWSTPYTFGGGTKLEIK
[1]
  EC50: 57.2 nM

B3: murine monoclonal anti-PcrV IgG mAb166 (antibody, V domains shown)
VH: QVQLKQSGPGLVQPSQSLSITCTVSGFSLTSYGVHWVRQSPGKGLEWLGVIWSGGDTDYNAAFISRLSISKDNSKSQLFFKMNSLRATDTAIYYCARNRGDIYYDFTYAMDYWGQGTSVTVSS
VL: DIQMTQSPASLSASVGETVTITCRASGNIQNYLAWYQQTQGKSPQLLVYSAKTLADGVPSRFSGSGSGTQYSLKINSLQPEDFGSYYCQHFWSTPYTFGGGTKLEIK
[2]
  binding result: binds
[3]
  binding result: binds
[4]
  binding result: binds
[5]
  binding result: binds
[6]
  binding result: binds
[7]
  binding result: binds
[8]
  binding result: binds
[9]
  binding result: binds
[10]
  binding result: binds
[11]
  binding result: binds
[12]
  binding result: binds
[13]
  binding result: binds
[14]
  binding result: binds
[15]
  binding result: binds
[16]
  binding result: binds
[17]
  binding result: binds
[18]
  binding result: binds
[19]
  binding result: binds
[20]
  binding result: binds
[21]
  binding result: binds
[22]
  binding result: binds
